Data on three molecules can be found in PMC5413510, “An Analysis of Trafficking Receptors Shows that CD44 and P-Selectin Glycoprotein Ligand-1 Collectively Control the Migration of Activated Human T-Cells” (Frontiers in Immunology, 2017).

To fix the notation:
B1: P-selectin glycoprotein ligand-1 (PSGL-1) from activated human T-cells (natural protein, human (endogenous in activated T-cells), UniProt Q14242 42-412, looked up)
chain: QATEYEYLDYDFLPETEPPEMLRNSTDTTPLTGPGTPESTTVEPAARRSTGLDAGGAVTELTTELANMGNLSTDSAAMEIQTTQPAATEAQTTQPVPTEAQTTPLAATEAQTTRLTATEAQTTPLAATEAQTTPPAATEAQTTQPTGLEAQTTAPAAMEAQTTAPAAMEAQTTPPAAMEAQTTQTTAMEAQTTAPEATEAQTTQPTATEAQTTPLAAMEALSTEPSATEALSMEPTTKRGLFIPFSVSSVTHKGIPMAASNLSVNYPVGAPDHISVKQCLLAILILALVATIFFVCTVVLAVRLSRKGHMYPVRNYSPTEMVCISSLLPDGGEGPSATANGGLSKAKSPGLTPEPREDREGDDLTLHSFLP
modifications: O-glycans
notes: P-selectin glycoprotein ligand-1 (CD162), human; also called CD162
B2: recombinant mouse E-selectin/CD62E Fc chimera (E-Ig) (Fc fusion, UniProt Q00690 22-557, looked up)
chain: WYYNASSELMTYDEASAYCQRDYTHLVAIQNKEEINYLNSNLKHSPSYYWIGIRKVNNVWIWVGTGKPLTEEAQNWAPGEPNNKQRNEDCVEIYIQRTKDSGMWNDERCNKKKLALCYTASCTNASCSGHGECIETINSYTCKCHPGFLGPNCEQAVTCKPQEHPDYGSLNCSHPFGPFSYNSSCSFGCKRGYLPSSMETTVRCTSSGEWSAPAPACHVVECEALTHPAHGIRKCSSNPGSYPWNTTCTFDCVEGYRRVGAQNLQCTSSGIWDNETPSCKAVTCDAIPQPQNGFVSCSHSTAGELAFKSSCNFTCEQSFTLQGPAQVECSAQGQWTPQIPVCKAVQCEALSAPQQGNMKCLPSASGPFQNGSSCEFSCEEGFELKGSRRLQCGPRGEWDSKKPTCSAVKCDDVPRPQNGVMECAHATTGEFTYKSSCAFQCNEGFSLHGSAQLECTSQGKWTQEVPSCQVVQCPSLDVPGKMNMSCSGTAVFGTVCEFTCPDDWTLNGSAVLTCGATGRWSGMPPTCEAPVSPTRP
notes: E-selectin (CD62E), mouse; Mouse is named only in the flow cytometry methods; also called E-selectin-hIg chimera; recombinant E-selectin–Ig chimera; source: bought: R&D
B3: E-selectin on CHO cells expressing E-selectin (CHO-E) (receptor)
chain: WSYNTSTEAMTYDEASAYCQQRYTHLVAIQNKEEIEYLNSILSYSPSYYWIGIRKVNNVWVWVGTQKPLTEEAKNWAPGEPNNRQKDEDCVEIYIKREKDVGMWNDERCSKKKLALCYTAACTNTSCSGHGECVETINNYTCKCDPGFSGLKCEQIVNCTALESPEHGSLVCSHPLGNFSYNSSCSISCDRGYLPSSMETMQCMSSGEWSAPIPACNVVECDAVTNPANGFVECFQNPGSFPWNTTCTFDCEEGFELMGAQSLQCTSSGNWDNEKPTCKAVTCRAVRQPQNGSVRCSHSPAGEFTFKSSCNFTCEEGFMLQGPAQVECTTQGQWTQQIPVCEAFQCTALSNPERGYMNCLPSASGSFRYGSSCEFSCEQGFVLKGSKRLQCGPTGEWDNEKPTCEAVRCDAVHQPPKGLVRCAHSPIGEFTYKSSCAFSCEEGFELHGSTQLECTSQGQWTEEVPSCQVVKCSSLAVPGKINMSCSGEPVFGTVCKFACPEGWTLNGSAARTCGATGHWSGLLPTCEAPTESNIPLVAGLSAAGLSLLTLAPFLLWLRKCLRKAKKFVPASSCQSLESDGSYQKPSYIL

Assay [1] deals with B2. Kind of assay: SPR; BIAcore CM5 chip; CD44 and PSGL-1 captured from activated T-cell lysate by immobilised mAbs; 10 E-Ig concentrations (0.456-466.7 nM) injected at 30 ul/min in 150 mM NaCl running buffer; KD from steady-state fit; apparent koff from the buffer wash after the last injection; apparent kon calculated (Eq. 1 in Supplementary Material); isotype control subtracted. The following applies: both partners purified.

The target in assay [2] is B1. Described as above. The note with it: both partners purified.
Assay [3] deals with CD44/HCELL from activated human T-cells (human (endogenous in activated T-cells)). The assay is described as above.
The target is the same in assay [4].

Usually koff stands for the rate constant with which the complex falls apart. The kon is a measure of how fast the partners come together. With B1, in assay [1], the Kd is 467 nM, the koff was 2.5e-05 s⁻¹ and the kon is 52 M⁻¹ s⁻¹.
In the case of B2, the “stoichiometry N” value in assay [2] is ≥ 2 E-selectin dimers per PSGL-1 dimer. For the same molecule, in assay [3], the Kd was 777 nM, the koff is 4.9e-05 s⁻¹ and the on-rate constant (kon) was 61 M⁻¹ s⁻¹.
For the molecule B3, the average velocity of CHO-E cells rolling over the immuno-purified ligand on a blot (blot rolling assay, 0.5 dyn cm^-2, 2 mM Ca2+) in assay [4] turned out to be 3.3.
